The record followed here is paper PMC5719079.

Experiment [1] addresses Human recombinant hexaHis-tagged SIRT2 containing residues 50-356 (human) (UniProt Q8IXJ6). In words: ELISA; plate coated with 5 μg/ml SIRT2 overnight in PBS; TPPP/p25 or tubulin added in serial dilution, detected by TPPP/p25 or tubulin antibody; apparent Kd from a single binding site hyperbola; MZ242, MZ25 and SH1 up to 30 μM did not influence the binding of 125 nM TPPP/p25 significantly.

For experiment [2], the target named is Tubulin Polymerization Promoting Protein (TPPP/p25) (human) (UniProt O94811). In words: ELISA; plate coated with 5 ug/ml TPPP/p25 overnight in PBS; tubulin added at a serial dilution; bound tubulin detected by monoclonal tubulin antibody and HRP-conjugated secondary antibody; Kd from the saturation curve by a single binding site hyperbola model; apparent. Background: An ELISA detects its analyte on a solid surface through an enzyme-linked reagent.
Sequence of UniProt O94811 (O94811 whole entry): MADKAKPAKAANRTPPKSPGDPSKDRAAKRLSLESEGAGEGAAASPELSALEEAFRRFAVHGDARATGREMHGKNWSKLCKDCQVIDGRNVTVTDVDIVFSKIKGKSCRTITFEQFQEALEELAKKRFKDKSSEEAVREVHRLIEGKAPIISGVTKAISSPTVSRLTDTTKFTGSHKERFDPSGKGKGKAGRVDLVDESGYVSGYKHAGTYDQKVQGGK

Sequence of UniProt Q8IXJ6 (Q8IXJ6 50-356): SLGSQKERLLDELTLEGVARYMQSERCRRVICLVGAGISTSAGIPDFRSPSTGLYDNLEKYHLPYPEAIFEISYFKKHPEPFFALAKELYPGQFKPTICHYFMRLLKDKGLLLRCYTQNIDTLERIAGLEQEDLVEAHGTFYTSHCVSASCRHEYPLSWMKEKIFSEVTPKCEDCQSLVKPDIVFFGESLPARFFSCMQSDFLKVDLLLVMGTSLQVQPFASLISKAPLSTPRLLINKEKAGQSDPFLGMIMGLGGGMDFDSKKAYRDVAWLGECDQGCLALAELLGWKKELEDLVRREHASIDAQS

Take “Tubulin prepared from bovine brain (from UniProt Q6B856 1-445) (complex)”: the Kd in experiment [1] was over 2000 nM.
Regarding “tubulin (from UniProt Q6B856 1-445) (complex)”, in experiment [2], the Kd stood at 10 nM.
